Among the data in publication PMC6225287 (2018) are Kd values, retold here.

The target in this assay is FGF-2 (Homo sapiens, UniProt P09038). Kind of assay: SPR.

As a reminder, the Kd is the free concentration of one partner at which half of the binding sites on the other are occupied at equilibrium, for simple one-to-one binding.

FGF-2, sequence (P09038 143-288): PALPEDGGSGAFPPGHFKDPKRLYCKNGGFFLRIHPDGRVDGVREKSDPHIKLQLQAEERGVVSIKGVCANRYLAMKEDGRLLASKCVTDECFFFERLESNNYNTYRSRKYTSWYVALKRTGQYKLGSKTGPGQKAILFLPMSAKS

Turning to QEDYDKDGIGDACDD [DD15 peptide (thrombospondin-1) type III repeats], the Kd turned out to be 28 µM. In other words, the double-digit micromolar range.
